Measured values as given in PMC8202958 (Cell reports, 2021).

T1: MBP-Ecm25-N-term+RhoGAP (1–360aa) (S. cerevisiae, UniProt P32525 1-360)
T1 sequence (looked up): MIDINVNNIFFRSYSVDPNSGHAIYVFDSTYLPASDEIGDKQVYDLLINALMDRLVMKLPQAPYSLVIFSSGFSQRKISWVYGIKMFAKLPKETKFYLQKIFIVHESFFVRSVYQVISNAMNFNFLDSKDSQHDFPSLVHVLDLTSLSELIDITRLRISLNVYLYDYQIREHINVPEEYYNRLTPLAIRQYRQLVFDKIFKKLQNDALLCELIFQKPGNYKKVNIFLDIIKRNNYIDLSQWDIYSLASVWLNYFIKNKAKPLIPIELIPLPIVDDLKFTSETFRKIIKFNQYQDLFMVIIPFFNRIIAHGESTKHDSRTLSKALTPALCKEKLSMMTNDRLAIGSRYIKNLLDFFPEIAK

T2: MBP-Ecm25-FL (full length, 1–599aa) (S. cerevisiae, UniProt P32525 1-599)
T2 sequence (looked up): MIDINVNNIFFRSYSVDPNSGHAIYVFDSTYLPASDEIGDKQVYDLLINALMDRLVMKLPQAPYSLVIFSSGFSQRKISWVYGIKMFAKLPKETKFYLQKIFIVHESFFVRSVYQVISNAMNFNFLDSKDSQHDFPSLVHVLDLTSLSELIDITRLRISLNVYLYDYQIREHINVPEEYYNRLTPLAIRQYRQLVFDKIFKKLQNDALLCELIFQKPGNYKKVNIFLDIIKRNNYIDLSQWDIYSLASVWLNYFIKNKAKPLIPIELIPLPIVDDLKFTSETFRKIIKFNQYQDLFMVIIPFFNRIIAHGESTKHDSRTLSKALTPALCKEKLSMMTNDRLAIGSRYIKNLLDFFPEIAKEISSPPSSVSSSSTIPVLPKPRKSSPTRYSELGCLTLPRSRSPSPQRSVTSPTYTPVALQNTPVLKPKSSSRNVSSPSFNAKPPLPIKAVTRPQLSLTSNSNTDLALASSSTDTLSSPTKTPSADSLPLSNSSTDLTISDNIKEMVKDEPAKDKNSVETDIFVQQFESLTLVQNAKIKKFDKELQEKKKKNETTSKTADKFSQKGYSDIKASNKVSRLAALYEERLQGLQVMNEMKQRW

B1: GST-Cdc42(Q61L) (natural protein)
chain: not shown
B2: GST-Cdc42(T17N) (natural protein)
chain: not shown
B3: GST-Cdc42 (natural protein)
chain: not shown
B4: GST-Lsb3 (natural protein, S. cerevisiae, UniProt P43603 1-459, looked up)
chain: MGINNPIPRSLKSETKKAAKILASFVKPNQVFGADQVIPPDVLKRAKGLAIITILKAGFLFSGRAGSGVIVARLKDGTWSAPSAIAMAGAGAGGMVGIELTDFVFILNTQDAVKSFSEFGTITLGGNVSVSAGPLGRSAEAAASASAGGVAAVFAYSKSKGLFAGVSVEGSAIIERREANRKFYGDNCTAKMILSGRIRPPPAVDPLFRVLESRAFNYRPSNGGRGSFDDDEDDYYDDDDYYNDIPSSFSSTDASSTRPNTRSTRRRAQSGSRYTFDDDDDDDDYGTGYSRNSRLAPTNSGGSGGKLDDPSGASSYYASHRRSGTAQSRARSSRNRWADDEYDDYDDDYESGYRRGNGRDRTKDREVDDLSNRFSKSRISSASTPQTSQGRFTAPTSPSTSSPKAVALYSFAGEESGDLPFRKGDVITILKKSDSQNDWWTGRVNGREGIFPANYVELV
B5: GST-Ysc84 (natural protein, S. cerevisiae, UniProt P32793 1-468, looked up)
chain: MGINNPIPRSLKSETKKAAKVLRSFVKPNQVFGADQVIPPYVLKRAKGLAIITVLKAGFLFSGRAGSGVIVARLKDGTWSAPSAIAMAGAGAGGMVGVELTDFVFILNSEEAVRSFSEFGTITLGGNVSVSAGPLGRSAEAAASASTGGVSAVFAYSKSKGLFAGVSVEGSAILERREANRKFYGDNCTSKMILSGRVKVPPAADPLLRILESRAFNFTRHDHDDNASGDDFYDDGQYSDNTSHYYDDIPDSFDSTDESSTRPNTRSSRRRGMSLGSRSRYDDDYDDDGYGRGRGYGDFDSEDEDYDYGRSPNRNSSRNRGPQIDRGTKPRANTRWEDDLYDRDTEYSRPNHSGRDYDNTRGNRRGYGRERGYSLGHGPTHPSNMSNVDDLSHKMSKTGLGNESTATNSATPTAVALYNFAGEQPGDLAFKKGDVITILKKSDSQNDWWTGRTNGKEGIFPANYVRVS
B6: GST-Sla1(1–420aa, W41S) (domain or fragment, S. cerevisiae, UniProt P32790 1-420, looked up)
chain: MTVFLGIYRAVYAYEPQTPEELAIQEDDLLYLLQKSDIDDSWTVKKRVIGSDSEEPVGLVPSTYIEEAPVLKKVRAIYDYEQVQNADEELTFHENDVFDVFDDKDADWLLVKSTVSNEFGFIPGNYVEPENGSTSKQEQAPAAAEAPAATPAAAPASAAVLPTNFLPPPQHNDRARMMQSKEDQAPDEDEEGPPPAMPARPTATTETTDATAAAVRSRTRLSYSDNDNDDEEDDYYYNSNSNNVGNHEYNTEYHSWNVTEIEGRKKKKAKLSIGNNKINFIPQKGTPHEWSIDKLVSYDNEKKHMFLEFVDPYRSLELHTGNTTTCEEIMNIIGEYKGASRDPGLREVEMASKSKKRGIVQYDFMAESQDELTIKSGDKVYILDDKKSKDWWMCQLVDSGKSGLVPAQFIEPVRDKKHTE
B7: GST-Sla1(1–420aa, W108S) (domain or fragment, S. cerevisiae, UniProt P32790 1-420, looked up)
chain: MTVFLGIYRAVYAYEPQTPEELAIQEDDLLYLLQKSDIDDWWTVKKRVIGSDSEEPVGLVPSTYIEEAPVLKKVRAIYDYEQVQNADEELTFHENDVFDVFDDKDADSLLVKSTVSNEFGFIPGNYVEPENGSTSKQEQAPAAAEAPAATPAAAPASAAVLPTNFLPPPQHNDRARMMQSKEDQAPDEDEEGPPPAMPARPTATTETTDATAAAVRSRTRLSYSDNDNDDEEDDYYYNSNSNNVGNHEYNTEYHSWNVTEIEGRKKKKAKLSIGNNKINFIPQKGTPHEWSIDKLVSYDNEKKHMFLEFVDPYRSLELHTGNTTTCEEIMNIIGEYKGASRDPGLREVEMASKSKKRGIVQYDFMAESQDELTIKSGDKVYILDDKKSKDWWMCQLVDSGKSGLVPAQFIEPVRDKKHTE

What follows are binders tested against T1, MBP-Ecm25-N-term+RhoGAP (1–360aa) (assay: pull-down).

Binding result, binds:
B1, B2, B3

Each binder was assayed against T2, MBP-Ecm25-FL (full length, 1–599aa) (assay: pull-down).

Binding result, binds:
B4, B5, B6, B7
